The values that follow come from paper PMC7442640, “The oligomeric assembly of galectin-11 is critical for anti-parasitic activity in sheep (Ovis aries)” (Communications Biology, 2020).

In assay [1] the target is T1, LGALS-11 isoform 1 (galectin-11) (Ovis aries, UniProt A0A0A7EMW6).
T1 construct: gene LGALS15; recombinant, modified pET-28, E. coli BL21(DE3); alignment over 137 residues; homotetramer; natural variant with L9 and D124
T1 sequence (A0A0A7EMW6 1-137): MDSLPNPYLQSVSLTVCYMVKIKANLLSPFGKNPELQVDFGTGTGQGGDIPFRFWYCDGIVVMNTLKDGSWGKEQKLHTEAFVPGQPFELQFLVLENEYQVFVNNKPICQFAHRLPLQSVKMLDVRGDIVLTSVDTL
The experiment in a line: X-ray crystallography. The settings on record: 2.40 Å complex structure; carbohydrate recognition domain (R53, N64, E74 hydrogen bonds; V62, W71 contacts). Type of assay: binding.

The target of assay [2] is galectin-11 (LGALS-11) isoform 1 of sheep (Ovis aries) (sheep (Ovis aries)).
Assay [3] has the same target. The experiment in a line: AUC; sedimentation velocity, c(s) analysis with SEDFIT; 0.10, 0.30 and 0.90 mg/ml; 20 mM Tris-HCl pH 8.0, 100 mM NaCl, 0.5 mM TCEP; 20 °C; absorbance at 280 nm.
Assay [4] deals with galectin-11 (LGALS-11) isoform 2 of sheep (Ovis aries) (sheep (Ovis aries)).
Assay [5] has the same target. The experiment in a line: AUC; sedimentation velocity, c(s) analysis with SEDFIT; 0.10, 0.30 and 0.90 mg/ml; 20 mM Tris-HCl pH 8.0, 100 mM NaCl, 0.5 mM TCEP; 20 °C; absorbance at 280 nm.

`OC[C@H]1O[C@@H](O)[C@H](O)[C@@H](O)[C@H]1O` [β-D-galactose]: the X-ray crystallography entry in assay [1] is reported as “This galactose bound directly to the residues present in the four adjacent strands”.
As a reminder, the stoichiometry N is a count of units in the complex or per binding partner. In assay [2], “galectin-11 (LGALS-11) isoform 1 of sheep (Ovis aries) (natural protein)” registered an L4s of H. contortus with cuticular damage, shrunken soma and internal granules after 72 h with isoform 1 of over 95%; a xL3s of H. contortus that did not develop to L4s when exposed to isoform 1 (1.0 mg/ml) of 85%. The compound also showed a stoichiometry N in assay [3] of 4.
In the case of “galectin-11 (LGALS-11) isoform 2 of sheep (Ovis aries) (natural protein)”, in assay [4], the L4s of H. contortus with internal or cuticular damage after 72 h with isoform 2 is under 10%. The stoichiometry N in assay [5] turned out to be 2.
